Experimental findings from patent US20220162314A1 (ASHER BIOTHERAPEUTICS, published 2022) are described below.

Experiment [1] addresses T1, Recombinant human CD8ab protein (extracellular domains of CD8a and CD8b with leucine zippers and tags) (human, UniProt P01732 22-182; P10966 22-170).
T1 construct: extracellular domain; Secreted from HEK293 cells; also called recombinant CD8ab; soluble CD8ab antigen; not shown: acidic leucine zipper; 8x Histidine tag; basic leucine zipper; Strep-tag II
Put plainly: SPR as in Example 1 (antibody captured, soluble CD8ab as analyte), steady state fit. As to the method: (§1) Recombinant human CD8ab protein was generated. […] Antibodies were first captured on an anti-hJgG-Fc CM5 or CM4 surface prepared using the Human Antibody Capture Kit (Cytiva). […] Dissociation was monitored for 5-10 minutes, and the anti-hJgG-Fc surface was regenerated with 3M MgCl2 before recapturing mAb in each subsequent cycle. Binding data were analyzed by Biacore T200 Evaluation Software version 3.2 using a 1:1 binding model.

The target in experiment [2] is T1, Recombinant human CD8ab protein …. Put plainly: SPR (Biacore T200, 37 C), antibody captured by anti-human IgG Fc, soluble CD8ab as analyte, 1:1 model. As to the method:
as §1
On the technique in general: Surface plasmon resonance follows binding to a sensor surface in real time, without labels.

Experiment [3] has as its target T2, CD8aa on human CD8+ NK cells (CD3-CD56+CD8a+ cells of hPBMCs) (human, UniProt P01732 22-235).
T2 construct: whole, on cells; also called CD8aa+ NK cells
Put plainly: flow cytometry on human PBMCs, CD8+ NK cells (CD3-CD56+CD8a+), anti-human Fc MFI. The method, then:
(§2) Binding of CD8ab antibodies to T cells (FIG. 4) and NK cells (FIG. 5) in hPBMCs was detected by staining with anti-human Fc antibody conjugated to APC. Anti-hFc was used to measure the binding of CD8 antibodies containing hFc. Mean fluorescence intensity (MFI) of staining with anti-hFc is used to denote binding. Binding of anti-hFc was determined in CD3+CD8a+CD8b+ cells (CD8+ T cells) and CD3-CD56+CD8a+ cells (CD8+NK cells).
(§3) The binding of CD8ab antibodies on cells was determined by flow cytometry. Freshly isolated PBMCs were incubated with CD8ab antibodies for 2 hours at 4° C. Cells were then stained with antibodies against surface markers CD3 (UCHT1), CD4 (RPA-T4), CD8a (SK1), CD56 (HCD56), and anti-human Fc antibody (HP6017). Anti-human Fc antibody was used to measure the binding of CD8ab antibodies containing hFc. Stained cells were washed and analyzed by flow cytometry and mean fluorescence intensity (MFI) of staining with anti-hFc was used to denote binding.
For orientation: Flow cytometry measures light scatter and fluorescence of single cells or particles in a stream.

In experiment [4] the target is T3, CD8 on human CD8+ T cells (CD3+CD8a+CD8b+ cells of hPBMCs) (human, UniProt P01732 22-235; P10966 22-210).
T3 construct: whole, on cells; also called CD8ab+ T cells
Put plainly: flow cytometry on human PBMCs, CD8+ T cells (CD3+CD8a+CD8b+), anti-human Fc MFI. As to the method:
as §2, §3

In experiment [5] the target is T4, Recombinant CD8a (Sino biological) (human, UniProt P01732 22-182).
T4 construct: also called CD8a alone
Put plainly: ELISA: antigen coated on the plate, antibody titrated, anti-IgG (Fc)-HRP and TMB, A450. As to the method:
(§4) Binding specificity of the antibodies was determined by ELISA. […] of recombinant CD8ab, CD8a (Sino biological), CD8b (Sino biological) and ovalbumin (Sigma) or Erb2 (human epidermal growth factor receptor 2) (Sino biological) in PBS were coated onto the maxisorp plate overnight at 4° C. Ovalbumin or Erb2 was used as negative control. Plate was then blocked with casein blocking solution (Thermo Scientific) for 1 hr at room temperature. After blocking, plate was washed with wash buffer (PBS/0.05% Tween-20). Next, dilution of antibody from 30 nM to 0.0009 nM in PBS/0.5% BSA/0.05% Tween-20 was added onto the plate and incubated for 1-2 hr at room temperature. After incubation, plate was washed, and incubated with anti-human IgG (Fc specific)-HRP conjugate or anti-mouse IgG (Fc specific)-HRP conjugate (Jackson Immunoresearch) in PBS/0.5% BSA/0.05% Tween-20 for 1 hr. Binding was detected by adding TMB substrate (SeraCare) to the plate, followed by stopping solution of 0.1M HCl. Binding absorbance was read using GloMax® Discover Microplate Reader (Promega).
For orientation: In an ELISA, binding on a coated surface is turned into a signal by an enzyme label.

For experiment [6], the target named is T5, Recombinant CD8b (Sino biological) (human, UniProt P10966 22-170, limits assumed).
T5 construct: also called CD8b alone
Described as above. As to the method:
as §4

The target in experiment [7] is T1, Recombinant human CD8ab protein …. Described as above. The method, then:
as §4

Experiment [8] concerns the target T3, CD8 on human CD8+ T cells …. Put plainly: flow cytometry, CD8+ T cells, anti-human Fc MFI. As to the method: as §3

T5 sequence (P10966 22-170 limits assumed): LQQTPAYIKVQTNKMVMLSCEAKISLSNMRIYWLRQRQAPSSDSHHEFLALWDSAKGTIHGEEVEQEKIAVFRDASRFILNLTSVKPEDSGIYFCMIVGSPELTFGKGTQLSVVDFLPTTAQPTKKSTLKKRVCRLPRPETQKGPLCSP
T3 sequence (P01732 22-235, chain 1 of 2): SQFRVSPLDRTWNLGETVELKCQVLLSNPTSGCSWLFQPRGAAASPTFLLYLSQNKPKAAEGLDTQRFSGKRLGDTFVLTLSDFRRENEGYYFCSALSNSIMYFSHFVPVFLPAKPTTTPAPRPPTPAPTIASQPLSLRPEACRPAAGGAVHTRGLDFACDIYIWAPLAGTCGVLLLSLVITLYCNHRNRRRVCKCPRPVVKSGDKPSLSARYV
T3 sequence (P10966 22-210, chain 2 of 2): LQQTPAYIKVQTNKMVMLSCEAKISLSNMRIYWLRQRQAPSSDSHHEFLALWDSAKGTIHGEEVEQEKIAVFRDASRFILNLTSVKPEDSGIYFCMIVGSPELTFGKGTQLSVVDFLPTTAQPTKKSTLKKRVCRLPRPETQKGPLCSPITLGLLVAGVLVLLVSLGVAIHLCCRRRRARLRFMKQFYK
T2 sequence (P01732 22-235): as the sequence (P01732 22-235, chain 1 of 2) above
T4 sequence (P01732 22-182 limits assumed): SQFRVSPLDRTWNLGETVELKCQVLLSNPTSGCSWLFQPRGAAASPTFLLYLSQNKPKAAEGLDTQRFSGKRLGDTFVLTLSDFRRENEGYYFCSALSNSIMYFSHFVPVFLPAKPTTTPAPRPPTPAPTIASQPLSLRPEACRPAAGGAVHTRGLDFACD
T1 sequence (P01732 22-182, chain 1 of 2): as the sequence (P01732 22-182 limits assumed) above
T1 sequence (P10966 22-170, chain 2 of 2): as the sequence (P10966 22-170 limits assumed) above

B1: xhCD8v8 (antibody, human IgG1, V domains shown)
VH: QVQLQQSGAELVRPGSSVKISCKASGYAFSSYWMNWVKQRPGQGLEWIGQIYPGDGDTNYNGKFKGKATLTADKSSSTAYMQLSSLTSEDSAVYFCARSGAAFSSYYAMDYWGQGTSVTVSS
VL: DIQMTQSPASLSVSVGETVTITCRASENIYSNLAWYQQKQGKSPQLLVYAATNLADGVPSRFSGSGSGTQYSLKINSLQSEDFGSYYCQHFWGTPWTFGGGTKLEIK
notes: also called xCD8v8
For B1, the Kd in experiment [1] was determined as 236 nM.

B2: xhCD8v1 (antibody, V domains shown)
VH: QVHLQQSGPELVKPGASVKMSCKTSGYTFTKYTMHWVKQGHEESLEWIGHFNPNNDETKYNQKFTGKATLTVDKSSTTAYMELRSLTSDDSALYYCARDGLGLRLFADWGQGTLITVSA
VL: DIQMTQSPASLSASVGETVTITCGASENIYGALNWYQRKQGKSPQLLIFGATNLADGVSSRFSGSGSDRQYSLKISSLHPDDVATYYCQNILDTPWTFGGGTKLEIK
notes: Mouse monoclonal antibody against CD8b; also called mouse monoclonal antibody xhCD8v1; xCD8v1
For the molecule B2, the Kd in experiment [2] came out at 19.8 nM. Besides, the koff in experiment [2] was 0.0183 s⁻¹. Further, the kon in experiment [2] was found to be 922000 M⁻¹ s⁻¹. Further, the results for the binding result in experiment [3] and in experiment [5] were “no binding (tested: 100 nM)” and “no binding (tested: 30 nM)”, respectively. The “EC50 (read off the curve)” value in experiment [4] is ~0.3 nM; in experiment [6], ~0.09 nM; in experiment [7], ~0.05 nM; in experiment [8] it was ~0.3 nM.

B3: xhCD8v7 (antibody, human IgG1, V domains shown)
VH: EVQLVESGGGLVQPGRSLRLSCAASGFTFDDYAMHWVRQAPGKGLEWVAVISYDGSNKYYADSVKGRFTISRDNSKNTLYLQMNSLRAEDTAVYYCAKDRIGWYDYDAFDIWGQGTMVTVSS
VL: EIVLTQSPATLSVTPGEGATLSCRASHSVGSNLAWYQQKPGQAPRLLIYDASNRATGIPARFSGSGSGTDFTLTISSLEPEDLAVYYCQQRSNWPPTFGQGTRLEIK
For the molecule B3, the Kd in experiment [2] amounted to 1.08 nM. Also, the koff in experiment [2] turned out to be 0.000922 s⁻¹. Moreover, in experiment [2], the kon was 855000 M⁻¹ s⁻¹. Moreover, the binding result is “no binding (tested: 100 nM)” in experiment [3], “no binding (tested: 30 nM)” in experiment [5] and “no binding (tested: 30 nM)” in experiment [6]. In addition, the 50% effective concentration (EC50 (read off the curve)) in experiment [4] was ~0.05 nM; in experiment [7] it was ~0.09 nM.

B4: xhCD8v6 (antibody, human IgG1, V domains shown)
VH: EVQLVESGGGAVRPGGSLRLSCAASGFTFDDYGMSWVRQAPGKGLEWVSDINWSGEITAYADSVKGRFTISRDNAKNSLYLQMNSLRAEDTAVYYCARSNSYRWDDALDIWGQGTMVTVSS
VL: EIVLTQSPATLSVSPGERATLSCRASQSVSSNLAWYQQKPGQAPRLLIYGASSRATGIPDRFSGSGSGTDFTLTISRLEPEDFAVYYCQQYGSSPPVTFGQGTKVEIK
notes: also called xCD8v6
As to B4, the Kd in experiment [2] came out at 0.35 nM. Also, in experiment [2], the koff amounted to 0.000571 s⁻¹. For the same molecule, in experiment [2], the kon was determined as 1.62e+06 M⁻¹ s⁻¹. In addition, the results for the binding result in experiment [3], in experiment [5] and in experiment [6] were “no binding (tested: 100 nM)”, “no binding (tested: 30 nM)” and “no binding (tested: 30 nM)”, respectively. Further, the “EC50 (read off the curve)” value is ~0.3 nM in experiment [4] and ~0.07 nM in experiment [7].

As a reminder, the Kd is the equilibrium constant for the complex coming apart. Usually koff stands for a measure of how fast the partners let go of each other. A word on the kon: it is the second-order rate constant of association. The term EC50 (read off the curve) denotes the midpoint of the concentration-response curve.
